Test results reported in IntAct's records for PubMed 24855949.

B1: Ankyrin repeat domain-containing protein 49 (Homo sapiens), Q8WVL7 (parent)
chain: MEKEKGNDDGIPDQENSLDFSEHFNQLELLETHGHLIPTGTQSLWVGNSDEDEEQDDKNEEWYRLQEKKMEKDPSRLLLWAAEKNRLTTVRRLLSEKATHVNTRDEDEYTPLHRAAYSGHLDIVQELIAQGADVHAVTVDGWTPLHSACKWNNTRVASFLLQHDADINAQTKGLLTPLHLAAGNRDSKDTLELLLMNRYVKPGLKNNLEETAFDIARRTSIYHYLFEIVEGCTNSSPQS
B2: Cyclin-dependent kinase inhibitor 2A (Homo sapiens), P42771 (parent)
chain: MEPAAGSSMEPSADWLATAAARGRVEEVRALLEAGALPNAPNSYGRRPIQVMMMGSARVAELLLLHGAEPNCADPATLTRPVHDAAREGFLDTLVVLHRAGARLDVRDAWGRLPVDLAEELGHRDVARYLRAAAGGTRGSNHARIDAAEGPSDIPD
B3: NF-kappa-B inhibitor alpha (Gallus gallus (Chicken)), Q91974 (parent)
chain: MLSAHRPAEPPAVEGCEPPRKERQGGLLPPDDRHDSGLDSMKEEEYRQLVRELEDIRLQPREPPARPHAWAQQLTEDGDTFLHLAIIHEEKALSLEVIRQAAGDAAFLNFQNNLSQTPLHLAVITDQAEIAEHLLKAGCDLDVRDFRGNTPLHIACQQGSLRSVSVLTQHCQPHHLLAVLQATNYNGHTCLHLASIQGYLAVVEYLLSLGADVNAQEPCNGRTALHLAVDLQNSDLVSLLVKHGPDVNKVTYQGYSPYQLTWGRDNASIQEQLKLLTTADLQILPESEDEESSESEPEFTEDELMYDDCCIGGRQLTF

Variants of: B1
Conditions: with ran_human RAN

| Variant | effect of a mutation on the interaction |
| --- | --- |
| D107C;K150C | increasing interaction strength |
| D107I;K150I | increasing interaction strength |
| D107C;K150C;G183C | increasing interaction strength |

More lines, now with the values ahead:

| effect of a mutation on the interaction | Variant |
| --- | --- |
| increasing interaction strength | G183C |
| increasing interaction strength | K150I |

Variants of: B2
Conditions: with ran_human RAN

| effect of a mutation on the interaction | Variant |
| --- | --- |
| disrupting interaction strength | M53I |
| disrupting interaction strength | R87P |

Variants of: B2
Conditions: with cdk4_human CDK4, P11802
Sequence of cdk4_human CDK4, P11802 (P11802 whole entry): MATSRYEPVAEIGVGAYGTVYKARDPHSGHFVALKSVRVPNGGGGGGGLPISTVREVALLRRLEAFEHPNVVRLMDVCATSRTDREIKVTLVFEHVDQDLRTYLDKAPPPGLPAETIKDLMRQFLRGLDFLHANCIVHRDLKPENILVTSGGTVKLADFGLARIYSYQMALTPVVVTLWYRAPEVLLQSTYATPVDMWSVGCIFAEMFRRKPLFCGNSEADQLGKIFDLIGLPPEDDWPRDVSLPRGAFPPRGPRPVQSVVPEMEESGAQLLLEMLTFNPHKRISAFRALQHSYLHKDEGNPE

| effect of a mutation on the interaction | Variant |
| --- | --- |
| increasing interaction strength | M53I |
| increasing interaction strength | R87P |

Variants of: B2
Conditions: with ccnd1_human CCND1, P24385
Sequence of ccnd1_human CCND1, P24385 (P24385 whole entry): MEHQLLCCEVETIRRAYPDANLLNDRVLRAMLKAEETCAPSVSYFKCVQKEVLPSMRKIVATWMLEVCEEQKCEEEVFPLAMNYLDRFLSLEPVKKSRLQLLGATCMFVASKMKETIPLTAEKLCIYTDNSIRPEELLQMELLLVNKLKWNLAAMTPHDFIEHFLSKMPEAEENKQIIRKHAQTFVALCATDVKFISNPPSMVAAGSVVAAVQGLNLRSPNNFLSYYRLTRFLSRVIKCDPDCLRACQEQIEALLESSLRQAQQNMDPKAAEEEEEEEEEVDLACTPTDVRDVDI

| effect of a mutation on the interaction | Variant |
| --- | --- |
| increasing interaction strength | M53I |
| disrupting interaction strength | R87P |

Variants of: B2
Conditions: with cdk6_human CDK6, Q00534
Sequence of cdk6_human CDK6, Q00534 (Q00534 whole entry): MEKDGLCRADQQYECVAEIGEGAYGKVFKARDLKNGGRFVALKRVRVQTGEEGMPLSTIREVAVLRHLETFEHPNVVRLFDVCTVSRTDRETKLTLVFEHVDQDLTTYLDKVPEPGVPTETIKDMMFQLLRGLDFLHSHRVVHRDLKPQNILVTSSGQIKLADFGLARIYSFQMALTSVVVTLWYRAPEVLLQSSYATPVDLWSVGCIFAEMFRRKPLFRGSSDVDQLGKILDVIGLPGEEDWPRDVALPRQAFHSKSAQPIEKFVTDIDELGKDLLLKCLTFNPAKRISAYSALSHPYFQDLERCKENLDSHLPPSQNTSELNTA

| effect of a mutation on the interaction | Variant |
| --- | --- |
| increasing interaction strength | M53I |
| increasing interaction strength | R87P |

Variants of: B2
Conditions: with ran_human RAN
Remark: another data set of the same source

| effect of a mutation on the interaction | Variant |
| --- | --- |
| increasing interaction strength | M53I |
| increasing interaction strength | R87P |

Variants of: B2
Conditions: with cdk4_human CDK4, P11802
Remark: another data set of the same source

| effect of a mutation on the interaction | Variant |
| --- | --- |
| decreasing interaction strength | R87P |

Variants of: B2
Conditions: with cdk6_human CDK6, Q00534
Remark: another data set of the same source

| effect of a mutation on the interaction | Variant |
| --- | --- |
| decreasing interaction strength | R87P |

Variants of: B3
Conditions: with ran_human RAN

| Variant | effect of a mutation on the interaction |
| --- | --- |
| I124K | decreasing interaction strength |
| I124A | decreasing interaction strength |
| I124E | decreasing interaction strength |

The remaining lines, values ahead:

| effect of a mutation on the interaction | Variant |
| --- | --- |
| decreasing interaction strength | I124Q |
| decreasing interaction strength | I124R |
